From PMC5737863, “Entirely enzymatic nanofabrication of DNA–protein conjugates”

Legend:
mVirD2 [1] = biological target: T1, mVirD2 (Agrobacterium tumefaciens (from …, UniProt P06668 1-204)); assay: EMSA; apparent Kd; 1 mM Mg2+; covalent conjugation; Conjugation/EMSA: TKM buffer (50 mM Tris-HCl pH 8, 150 mM KCl, 1 mM MgCl2, 10% glycerol), 37 C, 1 h, 10% native PAGE; HER2 beads: PBS, room temperature, 15 min; conditions: protein: recombinant; tags: N-terminal 6xHis; label: 3' Cy3
T1 sequence: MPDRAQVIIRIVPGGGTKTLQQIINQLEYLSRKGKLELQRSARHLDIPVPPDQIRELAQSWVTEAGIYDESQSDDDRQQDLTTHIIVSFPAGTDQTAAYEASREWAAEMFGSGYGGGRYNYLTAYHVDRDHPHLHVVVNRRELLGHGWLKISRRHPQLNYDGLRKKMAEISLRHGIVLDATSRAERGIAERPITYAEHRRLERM

mVirD2 [2] = biological target: T1, mVirD2; assay: EMSA; 1 mM Mg2+; higher conjugate yield than T1; Conjugation/EMSA: TKM buffer (50 mM Tris-HCl pH 8, 150 mM KCl, 1 mM MgCl2, 10% glycerol), 37 C, 1 h, 10% native PAGE; HER2 beads: PBS, room temperature, 15 min; conditions: protein: recombinant; tags: N-terminal 6xHis; label: 3' Cy3
mVirD2 [3] = biological target: T1, mVirD2; assay: EMSA; non-covalent; no nicking; Conjugation/EMSA: TKM buffer (50 mM Tris-HCl pH 8, 150 mM KCl, 1 mM MgCl2, 10% glycerol), 37 C, 1 h, 10% native PAGE; HER2 beads: PBS, room temperature, 15 min; conditions: protein: recombinant; tags: N-terminal 6xHis; single-stranded
HER2 = HER2 (UniProt P04626 23-652); assay: bead pull-down, GFP fluorescence; aptamer conjugated to mVirD2-GFP; PBS, room temperature; Conjugation/EMSA: TKM buffer (50 mM Tris-HCl pH 8, 150 mM KCl, 1 mM MgCl2, 10% glycerol), 37 C, 1 h, 10% native PAGE; HER2 beads: PBS, room temperature, 15 min; conditions: protein: commercial; tags: Fc; label: GFP (via conjugated protein)
mVirD2-GFP = biological target: T2, mVirD2-GFP (Agrobacterium tumefaciens (from …, UniProt P06668 1-204)); assay: denaturing PAGE shift; covalent conjugate; Conjugation/EMSA: TKM buffer (50 mM Tris-HCl pH 8, 150 mM KCl, 1 mM MgCl2, 10% glycerol), 37 C, 1 h, 10% native PAGE; HER2 beads: PBS, room temperature, 15 min; conditions: protein: recombinant; tags: N-terminal 6xHis
T2 sequence: T1 sequence

mVirD2 [4] = biological target: T1, mVirD2; assay: denaturing PAGE and SDS-PAGE shift; covalent conjugate; Conjugation/EMSA: TKM buffer (50 mM Tris-HCl pH 8, 150 mM KCl, 1 mM MgCl2, 10% glycerol), 37 C, 1 h, 10% native PAGE; HER2 beads: PBS, room temperature, 15 min; conditions: protein: recombinant; tags: N-terminal 6xHis

Binder: GCTCAAATTACAACGGTATATATCCTGCCAGTCAG (ssDNA) [T1 (VirTarget)]
- Kd (mVirD2 [1]): 468 ± 68 nM

Binder: GCTCAAATTACAACGGTATATATCCTGCCAGTCAG (XNA, phosphorothioate bonds at underlined bases (underline lost in text)) [PS-T1VirTarget]
- binding result (mVirD2 [2]): binds

B1: ss Cut site RNA (mixed)
DNA: GCTCAAATTACAACGGTATATATCCTGCCAGTCAG
modifications: DNA-RNA chimera; AT-rich binding sequence is DNA, cut site is RNA (bold lost in text)
- binding result (mVirD2 [3]): binds

B2: HeA2_3 aptamer, nicked and conjugated to mVirD2-GFP (ssDNA)
DNA: CCAGTCAGTAGGGAAGAGAAGGACATATGATTCTAAAAGGATTCTTCCCAAGGGGATCCAATTCAAACAGC
modifications: 5' end covalently linked to mVirD2-GFP Tyr29
- binding result (HER2): binds

B3: MOSIC HeA2_3 with mVirD2 site (ssDNA)
DNA: GCTCAAATTACAACGGTATATATCCTGCCAGTCAGTAGGGAAGAGAAGGACATATGATTCTAAAAGGATTCTTCCCAAGGGGATCCAATTCAAACAGC
- binding result (mVirD2-GFP): binds
- binding result (mVirD2 [4]): binds
